The source of these data is article PMC11316107, “PPTC7 antagonizes mitophagy by promoting BNIP3 and NIX degradation via SCF^FBXL4” (EMBO Reports, 2024).

Where a chain is given by its changes, count along the chain named.

Details in all cases: both partners purified
Test [1] deals with T1, PPTC7 (31-304), wild type (human, UniProt Q8NI37 31-304).
T1 construct: human PPTC7, residues 31-304, from pGEX-6P-2 GST-PPTC7(31-304); GST removed with PreScission protease; assayed with 10 mM MnCl2 in the buffer; also called PPTC7 + Mn2+; Protein Phosphatase Targeting COQ7; source: E. coli BL21(DE3), purified (glutathione-sepharose, PreScission cleavage, Superdex 75 gel filtration); not shown: GST, N-terminal, cleaved
T1 sequence (looked up): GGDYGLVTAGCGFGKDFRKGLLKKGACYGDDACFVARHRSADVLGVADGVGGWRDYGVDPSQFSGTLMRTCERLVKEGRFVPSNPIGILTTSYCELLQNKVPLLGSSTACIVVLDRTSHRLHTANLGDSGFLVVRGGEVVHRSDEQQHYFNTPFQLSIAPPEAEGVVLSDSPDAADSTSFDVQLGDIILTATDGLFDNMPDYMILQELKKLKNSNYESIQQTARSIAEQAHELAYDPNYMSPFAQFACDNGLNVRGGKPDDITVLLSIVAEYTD
Briefly: ITC; 500 µM peptide (syringe) titrated into 25 µM PPTC7 (cell); 25 °C; 50 mM HEPES pH 7.5, 300 mM NaCl, 10 mM MnCl2, 2 mM β-mercaptoethanol; MicroCal PEAQ-ITC. In general terms: In ITC the heat of successive injections is recorded.

The next test addresses T2, PPTC7 (31-304) D290N (human, UniProt Q8NI37 31-304, D290N).
T2 construct: human PPTC7, residues 31-304, from pGEX-6P-2 GST-PPTC7(31-304)(D290N); The purification is described for GST-PPTC7 (31-304); also called PPTC7 D290N; PPTC7-D290N; source: E. coli BL21(DE3), purified (glutathione-sepharose, PreScission cleavage, Superdex 75 gel filtration); not shown: GST, N-terminal, cleaved
T2 sequence (looked up): T1 sequence (looked up) with D260N
Described as above.

Test [2] has as its target T3, recombinant PPTC7 (31-304) wild type (human, UniProt Q8NI37 31-304).
T3 construct: PPTC7, human, residues 31-304; pGEX-6P-2 vector; also called PPTC7 wild-type; GST-PPTC7(31-304); source: E. coli BL21(DE3), purified (glutathione-sepharose, PreScission cleavage, Superdex 75)
T3 sequence (looked up): T1 sequence (looked up)
As to the kind of experiment: ITC; 500 µM peptide titrated into 25 µM PPTC7; 25 °C; 50 mM HEPES pH 7.5, 300 mM NaCl, 10 mM MnCl2, 2 mM β-mercaptoethanol; MicroCal PEAQ-ITC.

By stoichiometry N is commonly meant the number of molecules, sites or subunits per partner or assembly. In general, Kd refers to the free concentration of one partner at which half of the binding sites on the other are occupied at equilibrium, for simple one-to-one binding.

B1: BNIP3L(A138-R163) peptide (peptide)
peptide: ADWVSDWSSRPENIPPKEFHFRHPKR
notes: human NIX (BNIP3L), residues A138-R163; also called NIX; NIX peptide; source: synthetic peptide
Turning to B1, the “stoichiometry N” value (in test [1]; with PPTC7 (31-304) D290N) was 1 in each case. In the test with PPTC7 (31-304) D290N, the Kd worked out at 35.9 ± 1.09 µM.

B2: BNIP3(N113-R139) peptide (peptide)
peptide: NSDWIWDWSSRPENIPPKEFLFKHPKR
notes: human BNIP3, residues N113-R139 (Q12983, 194 aa); also called BNIP3 peptide; source: synthetic peptide
In the case of B2, the “stoichiometry N” value in test [1] came out at 1.

B3: NIX peptide (A138-R163) (peptide)
peptide: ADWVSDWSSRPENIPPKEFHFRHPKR
notes: also called BNIP3L(A138-R163); source: synthetic peptide
On to B3, for which the Kd in test [2] is 37.5 µM.

B4: BNIP3 peptide (N113-R139) (peptide)
peptide: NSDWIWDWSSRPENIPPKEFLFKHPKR
notes: also called BNIP3(N113-R139); source: synthetic peptide
On to B4, for which, in test [2], the Kd came to 20.1 µM.
